B1: β-N-acetylhexosaminidase (native form) (Aspergillus oryzae) (protein)
chain 1: VGVNPLPAPREISWGSSGPKSIAGELQLRTDSDSADGIVADAWNRAWETIVALRWVPAATEAPISSFEPFPTPTAGAS
chain 2: ASNSLQYVNVQVKDIEADLQHGVDESYTLDVEEDSDTITINAETVWGALHAFTTLQQLVISDGHGGLIIEEPVNIKDSPLYPYRGIMLDTGRNFVSLPKIFEQLEGMSLSKLNVLHWHIDDAQSWPIWVDVYPEMVKDAYSPHEIYSRNDVRNIVNYARARGIRVIPEIDMPSHSSSGWKQVDPEMVTCTDSWWSNDDWPLHTAVEPNPGQLDIIYNKTYEVVGNVYKELSDIFPDHWFHVGGDEIQPNCFNFSTHVTKWFAEDPSRTYHDLAQYWVDHAVPIFQNYSQERRLVMWEDIALSADNAHDVPKNIVMQSWNNGLEYISNLTARGYDVIVSSSDFLYLDCGHGGFVTNDPRYNVMANPDANTPNFNYGGNGGSWCAPYKTWQRIYDYDFTLNLTETQAKHIIGATAPLWGEQVDDINVSSMFWPRAAALAELVWSGNRDANGNKRTTEMTQRILNFREYLVANGVQAQALVPKYCLQHPHACDLYRNQAAIQ
notes: native enzyme purified from culture medium of A. oryzae; secreted, fully N-glycosylated (six sites), dimer; GH20
B2: deglycosylated β-N-acetylhexosaminidase (Aspergillus oryzae) (protein)
chain 1: VGVNPLPAPREISWGSSGPKSIAGELQLRTDSDSADGIVADAWNRAWETIVALRWVPAATEAPISSFEPFPTPTAGAS
chain 2: ASNSLQYVNVQVKDIEADLQHGVDESYTLDVEEDSDTITINAETVWGALHAFTTLQQLVISDGHGGLIIEEPVNIKDSPLYPYRGIMLDTGRNFVSLPKIFEQLEGMSLSKLNVLHWHIDDAQSWPIWVDVYPEMVKDAYSPHEIYSRNDVRNIVNYARARGIRVIPEIDMPSHSSSGWKQVDPEMVTCTDSWWSNDDWPLHTAVEPNPGQLDIIYNKTYEVVGNVYKELSDIFPDHWFHVGGDEIQPNCFNFSTHVTKWFAEDPSRTYHDLAQYWVDHAVPIFQNYSQERRLVMWEDIALSADNAHDVPKNIVMQSWNNGLEYISNLTARGYDVIVSSSDFLYLDCGHGGFVTNDPRYNVMANPDANTPNFNYGGNGGSWCAPYKTWQRIYDYDFTLNLTETQAKHIIGATAPLWGEQVDDINVSSMFWPRAAALAELVWSGNRDANGNKRTTEMTQRILNFREYLVANGVQAQALVPKYCLQHPHACDLYRNQAAIQ
notes: same polypeptide as P1, native purification, enzymatically N-deglycosylated under native conditions (endoglycosidase H, leaving core GlcNAc, or N-glycanase)

Substrate: CC(=O)N[C@H]1[C@H](Oc2ccc([N+](=O)[O-])cc2)O[C@H](CO)[C@@H](O)[C@@H]1O
Assay: 4-nitrophenyl substrate hydrolysis assay
Type: biochemical, Aspergillus oryzae
Conditions: substrate concentrations around Km

Row | Protein | Km (native N-glycosylated form) [µM] | Km (deglycosylated form) [µM]
1 | B1 | 450 | 
2 | B2 |  | 710

Source: publication PMC1885261, “Structure of the dimeric N-glycosylated form of fungal β-N-acetylhexosaminidase revealed by computer modeling, vibrational spectroscopy, and biochemical studies” (BMC Structural Biology, 2007)
